The source of these data is patent US20220135940A1, “METHOD FOR PRODUCING KIDNEY STRUCTURE HAVING DENDRITICALLY BRANCHED COLLECTING DUCT FROM PLURIPOTENT STEM CELLS” (NATIONAL UNIVERSITY CORPORATION KUMAMOTO UNIVERSITY, priority 2018, published 2022).

What all share (type): cell-based
Assay [1] deals with mouse ES cells. Kind of assay: AIM induction from mouse ES cells (procedure 3), AIM marker expression. The note with it: Fgf9 at high concentrations. On the procedure:
(§1) ES cells were differentiated in a serum-free medium as follows. The ES cells were dissociated with Accutase™ (ESGRO) and cultured in a serum-free mouse ES cell differentiation medium. The harvested cells were aggregated in a 96-well U-bottom low cell binding plate at 1,000 cells per aggregate to form embryonic bodies (EBs). After 48 hours (day 2), the EBs were dissociated with Accutase and re-aggregated in a serum-free differentiation medium supplemented with 10 ng/mL human activin A (R & D) (Procedure 1). After 24 hours (day 3), the medium was replaced with a medium containing 0.3 ng/mL human Bmp4 (R & D) and 10 μM CHIR 99021 (Procedure 2). After 36 hours (day 4.5), the medium was replaced with procedure 3 medium containing 0.1 μM retinoic acid, 100 ng/mL human Fgf9 and 10 μM SB431542 (Wako). On day 5.5 (24 hours later), the medium was replaced with a medium containing 0.1 μM retinoic acid, 100 ng/mL human Fgf9 and 5 μM CHIR99021 (“Procedure 4 medium”). The differentiation factors of the Hoxb7-GFP ES cell line are shown in the table below together with the differentiation factors of the Osr1-GFP ES cell line.
Harvested spheroids or cells were homogenized, and total RNA was isolated using RNeasy Plus Micro Kit (Qiagen), and then a reverse-transcribed with random primers and Superscript III (Invitrogen). Quantitative PCR was carried out using Real-Time PCR system (Takara Bio) and Thunderbird SYBR qPCR Mix (Toyobo). With normalized by β-actin gene, relative mRNA expression levels were analyzed.
Next, signaling for the AIM differentiation procedure was hypothesized, which is partially different from that for PIM, based on the gene expression profile minimally conserved, between anterior intermediate mesoderm (AIM) (Osr1+, Pax2+, Pax8+, Emx2+, Lhx1+, Gata3+) and posterior intermediate mesoderm (PIM) (Osr1+, Wtl+, Hoxll+) (Procedure 3 in FIG. 2).

The test system of assay [2] is mouse ES cells. As to the kind of experiment: Induction of CXCR4+/KIT+ WD progenitors from mouse ES cells, FACS at day 6.25. The note with it: Bmp4 in procedure 2, activin A in procedure 1. The protocol:
as §1
On day 6.25, the induced spheroids were harvested and dissociated by incubating in 0.25% trypsin/EDTA at 37° C. for 6 minutes. After blocking in normal mouse serum, cell surface marker (CXCR4/KIT) staining was carried out in a buffer containing 1% BSA, 1×HBSS and 0.035% NaHCO3. The FACS-sorted 3,000 Hoxb7-GFP+/CXCR4+/KIT+ cells were aggregated in a V-bottom 96-well low cell binding plate to form spheroids. Subsequently, these were cultured using the above E8.75 embryonic tissue culture conditions.
(§2) Cell aggregates induced from embryonic tissue or mouse ES cells/human iPS cells were dissociated and blocked with normal mouse serum and then cell surface marker staining was carried out in a buffer containing 1% BSA, 1×HBSS and 0.035% NaHCO3. Data analysis was performed with FlowJo software (Treestar).

Assay [3] concerns human iPS cells. As to the kind of experiment: Induction of CXCR4+/KIT+ WD progenitors from human iPS cells, FACS at day 6.25. Conditions: epiblast patterning stage (day 0 to day 1), combination of activin A and Bmp4. On the procedure: Cells were reaggregated at 10,000 cells per aggregate in a V-bottom 96-well low cell binding plate using a medium containing 10 μM Y27632 and 10 ng/mL human activin A and 1 ng/mL human Bmp4 (“Procedure 1 medium”), to form embryonic bodies (EBs). After 24 hours (day 1), the aggregates were transferred to a U-bottom 96-well low cell binding plate containing a medium containing 10 μM CHIR and 1 ng/mL human Bmp4 (“Procedure 2 medium”). After 36 hours (day 2.5), the medium was replaced with a medium containing 0.1 μM retinoic acid, 100 ng/mL human Fgf9, 100 nM LDN193189 and 100 μM SB431542 (“Procedure 3 medium”). On day 4.5, the medium was replaced with a medium containing 0.1 μM retinoic acid, 5 μM CHIR, 100 ng/mL human Fgf9 and 30 nM LDN193189 (“Procedure 4 medium”).
On day 6.25, the induced spheroids were harvested and dissociated by incubating in 0.25% trypsin/EDTA for 6 minutes at 37° C. After blocking in normal mouse serum, cell surface marker (CXCR4/KIT) staining was carried out in a buffer containing 1% BSA, 1×HBSS and 0.035% NaHCO3. The FACS-sorted 5,000 of CXCR4+/KIT+ cells were seeded in a V-bottom 96-well low cell binding plate and precipitated by the centrifuge (210 G for 4 minutes). The supernatant was replaced with a medium containing 10 μM Y27632, 0.1 μM retinoic acid, 1 μM CHIR, 5 ng/mL human Fgf9, 100 ng/mL human Fgf1, 10 nM LDN193189 and 10% growth factor reduced Matrigel (“Procedure 5 medium”). On day 8.5, the spheroids were transferred to a medium containing 10 μM Y27632, 0.1 μM retinoic acid, 3 μM CHIR, 5 ng/mL human Fgf9, 1 ng/mL human GDNF, 100 ng/mL human Fgf1, 10 nM LDN193189 and 10% growth factor reduced Matrigel (“Procedure 6 medium”). On day 10.5, the spheroids were transferred to a medium containing 10 μM Y27632, 0.1 μM retinoic acid, 3 μM CHIR, 2 ng/mL human GDNF, 100 ng/mL human Fgf1, 10 nM LDN193189 and 10% growth factor reduce Matrigel (“Procedure 7 medium”).
as §2
Next, the optimal time window for inducing anterior or posterior intermediate mesoderm from the nascent mesoderm was examined. Since the nascent mesoderm population is maintained by the high concentrations of Wnt agonists, the incubation period with Wnt agonists was varied and the subsequent differentiation was applied with conditions specific to the UB or metanephric nephron progenitor cell lineage. The induction efficiency of CXCR4+/KIT+ WD progenitor or ITGA8+/PDGFRA− nephron progenitor cell fraction was examined at day 6.25 or day 12, respectively. […]

Assay [4] has as its system human iPS cells. Kind of assay: Induction of ITGA8+/PDGFRA- nephron progenitor cells from human iPS cells, FACS at day 12. Conditions: epiblast patterning stage, absence of Bmp4. The protocol:
The previously reported protocol (Taguchi 2014 above) was modified and applied. In the presence of 10 μM Y27632 and 1 ng/mL human activin A, cells were reaggregated at 10,000 cells per aggregate in a V-bottom 96-well low cell binding plate, to form embryonic bodies (EBs). After 24 hours (day 1), the aggregates were transferred to a U-bottom 96-well low cell binding plate containing the mesoderm-inducing medium containing 10 μM CHIR. Subsequently, half of the culture medium was replaced with a fresh medium every other day (day 3 and day 5). On day 7, the medium was replaced with ABC3R medium containing 10 ng/mL human activin A, 3 ng/mL human Bmp4, 3 μM CHIR and 0.1 μM retinoic acid. On day 9, the medium was replaced with ClF medium containing 1 μM CHIR and 5 ng/mL human Fgf9.
as §2
Next, the optimal time window for inducing anterior or posterior intermediate mesoderm from the nascent mesoderm was examined. […]

B1: activin A: homodimer of two inhibin BA chains (protein, UniProt P08476 311-426, looked up)
Inhibin beta A chain: GLECDGKVNICCKKQFFVSFKDIGWNDWIIAPSGYHANYCEGECPSHIAGTSGSSLSFHSTVINHYRMRGHSPFANLKSCCVPTKLRPMSMLYYDDGQNIIKKDIQNMIVEECGCS
modifications: Inhibin beta A chain
notes: homodimer of two inhibin BA chains
On to B1, for which the “induction of AIM markers” value in assay [1] is “inhibitory to the induction of AIM markers”. In assay [2], the “UB induction versus MM induction, concentration dependence” value was “higher concentration of activin A was preferred for UB induction”. Moreover, the “concentration at which WD progenitor induction peaked” value in assay [3] amounted to 10 ng/mL. Besides, the “concentration at which induction of nephron progenitor cells was maximized” value in assay [4] was 1 ng/mL.
